Experimental data: publication PMC3276249 (Molecular Microbiology, 2012)

Assays:
SEC = target: the molecule itself; test: SEC
cross-linking = target: the molecule itself; test: cross-linking

B1: Bcam0581 of Burkholderia cenocepacia J2315, hexahistidine-tagged (enzyme)
chain: MQLQSHPACRPFYEAGELSQLTAFYEEGRNVMWMMLRSEPRPCFNQQLVTDIIHLARVARDSGLTFDFWVTGSLVPELFNVGGDLSFFVDAIRSGRRDQLMAYARSCIDGVYEIYTGFGTGAISIAMVEGSALGGGFEAALAHHYVLAQKGVKLGFPEIAFNLFPGMGGYSLVARKANRGLAESLIATGEAHAAEWYEDCGLIDETFDAGDAYLATRTFIDVTKPKLNGIRAMLRARERVFQLSRSELMDITEAWVHAAFTIEPKDLAYMERLVMLQNRRVSKLRTV
stoichiometry N (SEC): 3 | stoichiometry N (cross-linking): ~3
